The text below walks through data of patent US10005817.

This experiment has as its target PTH receptor (PTHR1) (human) (UniProt Q03431). The experiment is described as follows: cell-based or functional assay.

Chain of PTH receptor (PTHR1) (human) (Q03431 27-593): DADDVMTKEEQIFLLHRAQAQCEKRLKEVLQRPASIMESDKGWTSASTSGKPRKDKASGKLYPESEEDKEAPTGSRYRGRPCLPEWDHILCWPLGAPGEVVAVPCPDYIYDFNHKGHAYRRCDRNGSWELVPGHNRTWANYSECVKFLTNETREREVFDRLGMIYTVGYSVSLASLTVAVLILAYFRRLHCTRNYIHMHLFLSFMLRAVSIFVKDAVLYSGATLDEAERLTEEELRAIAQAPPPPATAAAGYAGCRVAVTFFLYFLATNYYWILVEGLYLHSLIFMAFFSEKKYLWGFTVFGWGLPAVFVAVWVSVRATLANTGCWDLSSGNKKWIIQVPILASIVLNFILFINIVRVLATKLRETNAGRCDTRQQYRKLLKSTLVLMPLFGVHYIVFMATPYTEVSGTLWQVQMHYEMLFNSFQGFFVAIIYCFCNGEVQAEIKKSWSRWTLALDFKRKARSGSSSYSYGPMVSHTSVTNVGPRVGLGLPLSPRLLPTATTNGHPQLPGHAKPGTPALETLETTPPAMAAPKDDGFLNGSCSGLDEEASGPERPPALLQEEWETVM

For the substance PTH (internal standard) (ligand), the maximal response worked out at 105%.
